Biological target: the molecule itself
Assay: cross-linking; 2 mM BS3 (membrane-impermeable) on starved HEK 293 T cells transfected with 1 µg DNA, room temperature, no ligand; Western blot with anti-FGFR3; cross-linked fraction SD/(SM+SD) with the 130 kDa monomer band

B1: FGFR3 carrying the A391E mutation (Crouzon syndrome with Acanthosis Nigricans) (receptor)
chain: ESLGTEQRVVGRAAEVPGPEPGQQEQLVFGSGDAVELSCPPPGGGPMGPTVWVKDGTGLVPSERVLVGPQRLQVLNASHEDSGAYSCRQRLTQRVLCHFSVRVTDAPSSGDDEDGEDEAEDTGVDTGAPYWTRPERMDKKLLAVPAANTVRFRCPAAGNPTPSISWLKNGREFRGEHRIGGIKLRHQQWSLVMESVVPSDRGNYTCVVENKFGSIRQTYTLDVLERSPHRPILQAGLPANQTAVLGSDVEFHCKVYSDAQPHIQWLKHVEVNGSKVGPDGTPYVTVLKTAGANTTDKELEVLSLHNVTFEDAGEYTCLAGNSIGFSHHSAWLVVLPAEEELVEADEAGSVYAGILSYGVGFFLFILVVEAVTLCRLRSPPKKGLGSPTVHKISRFPLKRQVSLESNASMSSNTPLVRIARLSSGEGPTLANVSELELPADPKWELSRARLTLGKPLGEGCFGQVVMAEAIGIDKDRAAKPVTVAVKMLKDDATDKDLSDLVSEMEMMKMIGKHKNIINLLGACTQGGPLYVLVEYAAKGNLREFLRARRPPGLDYSFDTCKPPEEQLTFKDLVSCAYQVARGMEYLASQKCIHRDLAARNVLVTEDNVMKIADFGLARDVHNLDYYKKTTNGRLPVKWMAPEALFDRVYTHQSDVWSFGVLLWEIFTLGGSPYPGIPVEELFKLLKEGHRMDKPANCTHDLYMIMRECWHAAPSQRPTFKQLVEDLDRVLTVTSTDEYLDLSAPFEQYSPGGQDTPSSSSSGDDSVFAHDLLPPAPPSSGGSRT
notes: fibroblast growth factor receptor 3, human, with the pathogenic transmembrane-domain mutation A391E; full-length receptor; the mature 130 kDa form in the plasma membrane was quantified; Made from the FGFR3/WT plasmid by site-directed mutagenesis; the mutation occurs in patients; also called FGFR3/A391E; A391E mutant; source: HEK 293 T, transiently transfected (pcDNA 3.1+, Fugene 6), on cells
For B1, the “stoichiometry N” value was 2.

Source: article PMC3577887, “Multiple Consequences of a Single Amino Acid Pathogenic RTK Mutation: The A391E Mutation in FGFR3” (PLoS ONE, 2013)
